Measured values reported in US8440430, “Modified dicer polypeptide and methods of use thereof” (The Regents of the University of California).
Blank lines part the entries; values can stand above or below the binder they belong to.

What was measured:
[1] = target: T1, TRBP, Q15633
T1 chain: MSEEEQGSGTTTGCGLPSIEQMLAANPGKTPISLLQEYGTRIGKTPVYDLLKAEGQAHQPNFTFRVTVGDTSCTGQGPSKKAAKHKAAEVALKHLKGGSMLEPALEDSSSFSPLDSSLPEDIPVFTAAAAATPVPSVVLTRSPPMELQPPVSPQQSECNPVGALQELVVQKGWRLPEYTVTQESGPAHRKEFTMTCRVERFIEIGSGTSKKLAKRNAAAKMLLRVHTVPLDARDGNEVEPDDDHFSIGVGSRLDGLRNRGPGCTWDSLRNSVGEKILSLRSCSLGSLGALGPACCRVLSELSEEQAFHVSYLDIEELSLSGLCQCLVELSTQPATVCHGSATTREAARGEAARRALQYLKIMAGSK

[2] = target: T2, ΔDEAD human Dicer (deletion of amino acids 1-604 spanning the entire DExD/H-box domain) (human, UniProt Q9UPY3 605-1922); assay: size exclusion chromatography with SDS-PAGE of fractions after 60 min pre-incubation on ice
T2 construct: The DEAD-F primer adds an initiator Met; also called ΔDEAD hDcr; DExD/H-box deletion protein
T2 sequence: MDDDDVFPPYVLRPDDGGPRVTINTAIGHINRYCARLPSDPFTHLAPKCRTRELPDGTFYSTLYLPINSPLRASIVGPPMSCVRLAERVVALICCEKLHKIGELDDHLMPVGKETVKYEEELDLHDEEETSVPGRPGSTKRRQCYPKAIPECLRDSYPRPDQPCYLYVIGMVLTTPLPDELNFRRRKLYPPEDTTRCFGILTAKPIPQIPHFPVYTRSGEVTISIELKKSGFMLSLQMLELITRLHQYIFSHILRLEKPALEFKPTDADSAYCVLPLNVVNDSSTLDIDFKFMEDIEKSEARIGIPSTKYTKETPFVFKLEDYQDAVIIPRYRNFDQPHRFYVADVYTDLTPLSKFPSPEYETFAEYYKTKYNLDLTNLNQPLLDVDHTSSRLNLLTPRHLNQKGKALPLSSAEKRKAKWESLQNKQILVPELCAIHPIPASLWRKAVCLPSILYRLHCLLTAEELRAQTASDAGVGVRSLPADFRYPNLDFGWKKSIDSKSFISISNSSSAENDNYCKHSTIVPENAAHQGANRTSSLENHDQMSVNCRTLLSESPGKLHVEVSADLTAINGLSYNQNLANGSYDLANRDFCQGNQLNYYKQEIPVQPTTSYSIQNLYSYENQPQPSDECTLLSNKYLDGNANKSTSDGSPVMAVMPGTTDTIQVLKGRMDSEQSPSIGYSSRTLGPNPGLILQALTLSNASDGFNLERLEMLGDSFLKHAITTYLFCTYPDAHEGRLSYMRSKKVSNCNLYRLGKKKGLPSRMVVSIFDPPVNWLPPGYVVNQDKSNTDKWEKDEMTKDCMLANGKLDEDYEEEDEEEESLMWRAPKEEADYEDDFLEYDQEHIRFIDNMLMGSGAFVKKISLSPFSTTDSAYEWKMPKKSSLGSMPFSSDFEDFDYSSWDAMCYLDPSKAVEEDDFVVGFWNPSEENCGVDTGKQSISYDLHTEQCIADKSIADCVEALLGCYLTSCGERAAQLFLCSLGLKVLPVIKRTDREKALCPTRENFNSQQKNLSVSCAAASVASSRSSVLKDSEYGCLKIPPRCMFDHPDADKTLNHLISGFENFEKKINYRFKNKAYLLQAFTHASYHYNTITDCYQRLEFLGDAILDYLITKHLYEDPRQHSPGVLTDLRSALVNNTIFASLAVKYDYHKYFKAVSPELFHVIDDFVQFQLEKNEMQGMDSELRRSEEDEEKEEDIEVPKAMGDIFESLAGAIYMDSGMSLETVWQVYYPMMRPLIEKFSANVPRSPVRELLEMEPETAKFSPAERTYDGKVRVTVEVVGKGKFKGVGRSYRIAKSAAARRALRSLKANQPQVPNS
Method: FIGS. 6A and 6B. Interaction of human Dicer with TRBP mediated by DEAD domain A, TRBP interacts with hDcr through DEAD domain. Prior to size exclusion chromatography, 2.5 nmol of each human Dicer protein and 9.0 nmol of TRBP were pre-incubated on ice for 60 minutes. Left panel, a chromatogram (top) of wild-type human Dicer (flhDcr) with TRBP and SDS-PAGE gel analysis of fractions (bottom); Right panel, a chromatogram (top) of ΔDEAD human Dicer (ΔDEAD) with TRBP and SDS-PAGE gel analysis of fractions (bottom). B, Binding of TRBP to hDcr increased its dicing activity. A multiple-turnover assay for 37ab cleavage using 100 nM dsRNA and 5 nM hDcr or hDcr-TRBP.

B1: full-length wild-type human Dicer (hDcr), accession no. NP-803187 (protein)
chain: MKSPALQPLSMAGLQLMTPASSPMGPFFGLPWQQEAIHDNIYTPRKYQVELLEAALDHNTIVCLNTGSGKTFIAVLLTKELSYQIRGDFSRNGKRTVFLVNSANQVAQQVSAVRTHSDLKVGEYSNLEVNASWTKERWNQEFTKHQVLIMTCYVALNVLKNGYLSLSDINLLVFDECHLAILDHPYREIMKLCENCPSCPRILGLTASILNGKCDPEELEEKIQKLEKILKSNAETATDLVVLDRYTSQPCEIVVDCGPFTDRSGLYERLLMELEEALNFINDCNISVHSKERDSTLISKQILSDCRAVLVVLGPWCADKVAGMMVRELQKYIKHEQEELHRKFLLFTDTFLRKIHALCEEHFSPASLDLKFVTPKVIKLLEILRKYKPYERQQFESVEWYNNRNQDNYVSWSDSEDDDEDEEIEEKEKPETNFPSPFTNILCGIIFVERRYTAVVLNRLIKEAGKQDPELAYISSNFITGHGIGKNQPRNKQMEAEFRKQEEVLRKFRAHETNLLIATSIVEEGVDIPKCNLVVRFDLPTEYRSYVQSKGRARAPISNYIMLADTDKIKSFEEDLKTYKAIEKILRNKCSKSVDTGETDIDPVMDDDDVFPPYVLRPDDGGPRVTINTAIGHINRYCARLPSDPFTHLAPKCRTRELPDGTFYSTLYLPINSPLRASIVGPPMSCVRLAERVVALICCEKLHKIGELDDHLMPVGKETVKYEEELDLHDEEETSVPGRPGSTKRRQCYPKAIPECLRDSYPRPDQPCYLYVIGMVLTTPLPDELNFRRRKLYPPEDTTRCFGILTAKPIPQIPHFPVYTRSGEVTISIELKKSGFMLSLQMLELITRLHQYIFSHILRLEKPALEFKPTDADSAYCVLPLNVVNDSSTLDIDFKFMEDIEKSEARIGIPSTKYTKETPFVFKLEDYQDAVIIPRYRNFDQPHRFYVADVYTDLTPLSKFPSPEYETFAEYYKTKYNLDLTNLNQPLLDVDHTSSRLNLLTPRHLNQKGKALPLSSAEKRKAKWESLQNKQILVPELCAIHPIPASLWRKAVCLPSILYRLHCLLTAEELRAQTASDAGVGVRSLPADFRYPNLDFGWKKSIDSKSFISISNSSSAENDNYCKHSTIVPENAAHQGANRTSSLENHDQMSVNCRTLLSESPGKLHVEVSADLTAINGLSYNQNLANGSYDLANRDFCQGNQLNYYKQEIPVQPTTSYSIQNLYSYENQPQPSDECTLLSNKYLDGNANKSTSDGSPVMAVMPGTTDTIQVLKGRMDSEQSPSIGYSSRTLGPNPGLILQALTLSNASDGFNLERLEMLGDSFLKHAITTYLFCTYPDAHEGRLSYMRSKKVSNCNLYRLGKKKGLPSRMVVSIFDPPVNWLPPGYVVNQDKSNTDKWEKDEMTKDCMLANGKLDEDYEEEDEEEESLMWRAPKEEADYEDDFLEYDQEHIRFIDNMLMGSGAFVKKISLSPFSTTDSAYEWKMPKKSSLGSMPFSSDFEDFDYSSWDAMCYLDPSKAVEEDDFVVGFWNPSEENCGVDTGKQSISYDLHTEQCIADKSIADCVEALLGCYLTSCGERAAQLFLCSLGLKVLPVIKRTDREKALCPTRENFNSQQKNLSVSCAAASVASSRSSVLKDSEYGCLKIPPRCMFDHPDADKTLNHLISGFENFEKKINYRFKNKAYLLQAFTHASYHYNTITDCYQRLEFLGDAILDYLITKHLYEDPRQHSPGVLTDLRSALVNNTIFASLAVKYDYHKYFKAVSPELFHVIDDFVQFQLEKNEMQGMDSELRRSEEDEEKEEDIEVPKAMGDIFESLAGAIYMDSGMSLETVWQVYYPMMRPLIEKFSANVPRSPVRELLEMEPETAKFSPAERTYDGKVRVTVEVVGKGKFKGVGRSYRIAKSAAARRALRSLKANQPQVPNS
cleavage rate in a multiple-turnover assay for 37ab cleavage (100 nM dsRNA, 5 nM hDcr or hDcr-TRBP) [1]: increased the cleavage rate of the resulting protein complex

binding result [2]: no binding
B2: TRBP (other, human, UniProt Q15633 1-366, looked up)
chain: T1 chain
notes: also called human partner protein TRBP
